Reference: patent US20030077318A1
Blank lines part the entries; values can stand above or below the substance they belong to.

What was measured:
[1] = target: recombinant biotinylated L^d immobilized on avidin-coated sheep red blood cells (mouse) (UniProt P01897); assay: flow cytofluorometry of L^d on avidin-coated SRBC
[2] = target: L^d on transfected Drosophila S2 (fly) cells with p2Ca peptide (mouse) (UniProt P01887); assay: cell-based or functional assay
[3] = target: L^d on transfected Drosophila S2 (fly) cells with QL9 peptide (mouse) (UniProt P01887); assay: cell-based or functional assay

- percent of cells labeled [1]: 99.8%
Substance: monoclonal antibody 30.5.7 (anti-L^d)

- IL-2 Production (Day 2), ^3HTdR incorporation of CTLL; L^d + B7.1 cells combined with L^d ICAM-1 cells [2]: 300 cpm
- IL-2 Production (Day 2), ^3HTdR incorporation of CTLL; fly cells expressing L^d [2]: 200 cpm
- IL-2 Production (Day 2), ^3HTdR incorporation of CTLL; fly cells expressing L^d + B7.1 [2]: 200 cpm
- IL-2 Production (Day 2), ^3HTdR incorporation of CTLL; fly cells expressing L^d + B7.1 + ICAM-1 [2]: 64600 cpm
- IL-2 Production (Day 2), ^3HTdR incorporation of CTLL; fly cells expressing L^d + ICAM-1 [2]: 100 cpm
- Proliferation (Day 3), ^3HTdR incorporation; L^d + B7.1 cells combined with L^d ICAM-1 cells [2]: 1500 cpm
- Proliferation (Day 3), ^3HTdR incorporation; fly cells expressing L^d [2]: 200 cpm
- Proliferation (Day 3), ^3HTdR incorporation; fly cells expressing L^d + B7.1 [2]: 300 cpm
- Proliferation (Day 3), ^3HTdR incorporation; fly cells expressing L^d + B7.1 + ICAM-1 [2]: 142000 cpm
- Proliferation (Day 3), ^3HTdR incorporation; fly cells expressing L^d + ICAM-1 [2]: 1500 cpm
- IL-2 Production (Day 2), ^3HTdR incorporation of CTLL; L^d + B7.1 cells combined with L^d ICAM-1 cells [3]: 500 cpm
- IL-2 Production (Day 2), ^3HTdR incorporation of CTLL; fly cells expressing L^d [3]: 100 cpm
- IL-2 Production (Day 2), ^3HTdR incorporation of CTLL; fly cells expressing L^d + B7.1 [3]: 400 cpm
- IL-2 Production (Day 2), ^3HTdR incorporation of CTLL; fly cells expressing L^d + B7.1 + ICAM-1 [3]: 159000 cpm
- IL-2 Production (Day 2), ^3HTdR incorporation of CTLL; fly cells expressing L^d + ICAM-1 [3]: 200 cpm
- Proliferation (Day 3), ^3HTdR incorporation; L^d + B7.1 cells combined with L^d ICAM-1 cells [3]: 133000 cpm
- Proliferation (Day 3), ^3HTdR incorporation; fly cells expressing L^d [3]: 200 cpm
- Proliferation (Day 3), ^3HTdR incorporation; fly cells expressing L^d + B7.1 [3]: 60900 cpm
- Proliferation (Day 3), ^3HTdR incorporation; fly cells expressing L^d + B7.1 + ICAM-1 [3]: 264000 cpm
- Proliferation (Day 3), ^3HTdR incorporation; fly cells expressing L^d + ICAM-1 [3]: 73900 cpm
Substance: 2C T-cell receptor (TCR), on CD8+ lymph node T cells of 2C TCR transgenic mice
